Source: US20250154277A1 (CONCEPT TO MEDICINE BIOTECH, published 2025)
Substitutions are numbered along the chain they refer to. Like-named read-outs stand apart in the source and are kept apart here.

T1: human 5T4-His protein (human, UniProt Q13641 32-355)
T1 construct: also called recombinant 5T4 protein (human 5T4-his tag); human 5T4 protein; not shown: His tag
T1 sequence (looked up): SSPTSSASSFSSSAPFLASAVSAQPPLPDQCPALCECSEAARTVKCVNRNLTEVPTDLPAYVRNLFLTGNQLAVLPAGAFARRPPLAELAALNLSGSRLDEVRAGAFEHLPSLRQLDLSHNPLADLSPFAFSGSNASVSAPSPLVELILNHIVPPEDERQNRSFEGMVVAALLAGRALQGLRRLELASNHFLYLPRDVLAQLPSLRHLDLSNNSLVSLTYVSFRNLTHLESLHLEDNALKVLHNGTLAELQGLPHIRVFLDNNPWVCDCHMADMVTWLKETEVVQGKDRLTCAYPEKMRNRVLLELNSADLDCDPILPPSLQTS

T2: cynomolgus 5T4 protein (cynomolgus monkey, UniProt Q4R8Y9 35-355, limits assumed)
T2 construct: Coated protein in ELISA; the screening step names a cyno 5T4-His protein; also called cyno 5T4; recombinant cyno 5T4-His protein
T2 sequence (looked up): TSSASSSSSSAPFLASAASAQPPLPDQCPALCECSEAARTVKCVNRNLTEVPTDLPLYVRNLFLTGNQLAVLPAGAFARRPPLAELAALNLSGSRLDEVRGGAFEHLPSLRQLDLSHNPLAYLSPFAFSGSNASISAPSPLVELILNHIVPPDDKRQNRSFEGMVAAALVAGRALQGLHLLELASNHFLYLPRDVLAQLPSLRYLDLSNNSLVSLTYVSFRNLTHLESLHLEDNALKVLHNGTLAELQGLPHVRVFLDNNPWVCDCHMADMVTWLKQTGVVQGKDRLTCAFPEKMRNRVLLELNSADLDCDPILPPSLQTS

B1: 49C5 chimeric antibody (antibody, V domains shown)
VH: EVQLQQSGPELVKPGASVKISCKASGYTFTDYYMNWVKQSHGKSLEWIGDINPYSGGATNNQKFKGKATLTVDKSSSTAYIELRSLTSEDSAVYFCARGSIYYDSTANYFDYWGQGTTLTVSS
VL: DIQMTQSPASLSASVGETVTITCRASENIYSYLAWYQQKQGKSPQLLVYNAKSLTEGVPSRFSGSRSGTQFSLKINSLQPEDFGSYYCQHHYVTPWTFGGGTKLEIK
notes: chimeric mAb
B2: 367B8 chimeric antibody (antibody, V domains shown)
VH: QVQLQQPGTELVKPGASVKLSCKASGYTFTSYWMHWVKQRPEQGLEWIGNINPSNGNTNYNENFKSQATLTVDKSSSTAYMQLSSLTSEDSAVYYCARGGWDFDYWGQGTTLTVSS
VL: QVVLTQSPAIMSASPGEKVTMTCSASSSVRYIHWYQQRSGTSPKRWIYDTSKLTSGVPVRFSGSGSGTSYSLTISSMEAEDAATYYCQQWTSKPPWTFGGGTKLEIR
notes: chimeric mAb
B3: 353H11 chimeric antibody (antibody, V domains shown)
VH: B2 VH with G26D, N63K, S66N, Q67K, S88F
VL: B2 VL with I32M, V59A, Q89L
notes: chimeric mAb
B4: 389G2 chimeric antibody (antibody, V domains shown)
VH: B2 VH with N63R, Q67K, A92T
VL: B2 VL with Y70F, R107K
notes: chimeric mAb
B5: 286B4 chimeric antibody (antibody, V domains shown)
VH: DVQLHESGPGLVKPSQSLSLTCSVTGYSITNNYYWNWIRQFPGNNLEWMGYITYDGSNNYNPSLKNRISVTRDTSKNQFFLKLSSVTTEDTATYYCTRGGGQLRFDYWGQGTTLTVSS
VL: SIVMTQTPKFLIVSAGDRVTITCKASQSVSNEVTWYQQKPGQSPKMLIYYASNRYTGVPDRFTGSGYGTDFTFTINTVQAEDLAIYFCQQDYSSPWTFGGGTKLEIK
notes: chimeric mAb; also called 284B4-C
B6: 109H7 chimeric antibody (antibody, V domains shown)
VH: QVQLQQSGAELMKPGASVKLSCKATGYTFTGYWIEWVKQRPGQGLEWIGETLPGRGSTNYNEKFKGKATFTADTSSNIVYMQLSSLTIEDSAIYYCARGRRDFDYWGQGTTLTVSS
VL: DIQMTQTTSSLSASLGDEVTISCSASQGINNYLNWYQQKPDGTVKLLIYYTSSLHSGVPSRFSGSGSGTDYSLTIINLEPEDIATYYCQQFSKLPFTFGSGTKLEIR
notes: chimeric mAb
B7: 119G5 chimeric antibody (antibody, V domains shown)
VH: QVQLQQSGPEVVKPGASVKISCKASGYTFTDYYMNWVKQSRGKSLEWIGDINPNNGGTNYNQKFKGKATLTVDKSSSTAYMELRSLTSEDSAVYYCAKEGPPGAMDYWGQGTSVTVSS
VL: NIVMTQTPKFLLVSAGDRVTITCKASQSVSNHVAWYQQKPGQSPKLLIYYVSNRSIGVPDRFTGSGYGTDFTFTISTVQAEDLAVYFCQQVYSSPFTFGGGTRLEMK
notes: chimeric mAb
B8: 85B10 chimeric antibody (antibody, V domains shown)
VH: B7 VH with V11L, D31A, M34V, R41H, K74M
VL: B7 VL with N1S, M4L, T20P, H32N, V51A, R54P, S55Y, I56T, S76T, R103K
notes: chimeric mAb
B9: 95F10 chimeric antibody (antibody, V domains shown)
VH: B7 VH with K13N, G66D, S77N, D90N
VL: B7 VL with S55Y
notes: chimeric mAb
B10: 425G1 chimeric antibody (antibody, V domains shown)
VH: EVQLQQSGAELVKPGASVKLSCTASGFNIKDTYMHWVKQRPEQGLEWIGRIDPANGHTIFASKFQGKATITADTSSNTAYMQLSSLTSGDTAVYYCGLFTMVVVPWYFDVWGTGTTVTVSS
VL: DIVMTQSHKFMSTSVGDRVSITCKASQDVSTAVAWYQQKPGQSPKLLIYWASTRHTGVPDRFTGSGSGTDYTLTISSVQAEDLALYYCQQHYSSPLTFGAGTKLELK
notes: chimeric mAb
B11: 493E10 chimeric antibody (antibody, V domains shown)
VH: DVQLVESGGGLVQPGGSRKLSCAASGFTFSSFGMHWVRQAPEKGLEWVAYISSGSSTIYYADTVKGRFTISRDNPKNTLFLQMTSLRSEDTAMYYCARNRAYHREAMDYWGQGTSVTVSS
VL: DIVLTQSPASLTVSLGQRATISCRASQSVSSSSYNYMHWYQQKPGQPPKLLIKSASNLESGVPARFSGSGSGTDFTLNIHPVEEEDTATYYCQHSWEIPYTFGGGTKLEIK
notes: chimeric mAb
B12: 449H9 chimeric antibody (antibody, V domains shown)
VH: QVQLQQSGAELVRPGSSVRISCKASGYAFSNYWMNWVKQRPGQGLEWIGQIYPGDGDTNYNGKFKNKATLTTDKSSSTAYMQLSSLTSEDSAVYFCARHYDYPYYYAMDYWGQGTSVTVSS
VL: DIQMTQSPSSLSASLGERVSLTCRASQDIGIALTWLQQEPDGTIKRLIYATSSLDSGVPKRFSGSRSGSDYTLTISSLESEDFVDYYCLQYIISPYTFGGGTKLEIK
notes: chimeric mAb

Tests used:
[1] = molecular target: T1, human 5T4-His protein; assay: ELISA, coated antigen
Protocol: (§1) ELISA testing was carried out to evaluate the binding of chimeric antibodies to human and cynomolgus, respectively. The antibody portion of naptumomab (NeoTX) that targets 5T4 (abbreviated as naptumomab in the present disclosure), was generated and used as a benchmark.
(§2) Briefly, microtiter plates were coated with human and cynomolgus 5T4 proteins at […] in PBS, 100 μl/well at 4° C. overnight, then blocked with 150 μl/well of 1% BSA. Serial dilutions of chimeric antibodies were added to each well and incubated for 1 hour at RT. The plates were washed with PBS/Tween and then incubate with mouse-anti-human IgG Fc antibody conjugated with Horse Radish Peroxidase (HRP) for 30 mins at RT. After washing, the plates were developed with TMB substrate and analyzed by spectrophotometer at OD 450 nm. All the 5T4 chimeric mAbs bound to human and cynomolgus 5T4 (FIG. 1-2 and Table 3).

[2] = molecular target: T2, cynomolgus 5T4 protein; assay: ELISA, coated antigen
Protocol: as §1, §2

[3] = molecular target: T1, human 5T4-His protein; assay: SPR Biacore, Protein A capture
Protocol: The binding of the chimeric mAbs from these clones against recombinant 5T4 protein (human 5T4-his tag) was tested with Biacore using a capture method. The mAbs were captured using Protein A chip. A serial dilution of human 5T4-his tag protein was injected over captured antibody for 2-3 mins at a flow rate of 30 μl/min. The antigen was allowed to dissociate for 360-1000 s. All the experiments were carried out on a Biacore T200. Data analysis was carried out using Biacore T200 evaluation software.

[4] = molecular target: T1, human 5T4-His protein; assay: ELISA, coated 5T4-His
Protocol: To evaluate the binding activity of clones, the 286B4 chimeric antibody along with 286B4 humanized mAbs were subjected to ELISA test.
Briefly, microtiter plates were coated with human 5T4-His protein at 1 μg/ml in PBS, 100 μl/well at 4° C. overnight, then blocked with 150 μl/well of 1% BSA. 4-fold dilutions of tested antibodies starting from 20 nM were added to each well and incubated for 1 hour at 37° C. The plates were washed with PBS/Tween and then incubated with Goat Anti-Human IgG-HRP for 30 mins at 37° C. After washing, the plates were developed with TMB substrate and analyzed by spectrophotometer at OD 450 nm. As shown in FIG. 16 and Table 15, most of the humanized clones bound to human 5T4 with high potency.

[5] = molecular target: T1, human 5T4-His protein; assay: SPR Biacore, Protein A capture; remark: listed apart in the source
Protocol: The binding of the 286B4 humanized antibodies to recombinant 5T4 protein (human 5T4-his tag) was tested with Biacore using a capture method. The mAbs were captured using Protein A chip. A serial dilution of human 5T4-his tag protein was injected over captured antibody for 3 mins at a flow rate of 30 μl/min. The antigen was allowed to dissociate for 280-800 s. All the experiments were carried out on a Biacore T200. Data analysis was carried out using the Biacore T200 evaluation software.

Binder	EC50 [1] [nM]	EC50 [2] [nM]	Kd [3] [nM]	koff [3] [s⁻¹]	kon [3] [M⁻¹ s⁻¹]	EC50 [4] [nM]	Kd [5] [nM]	koff [5] [s⁻¹]	kon [5] [M⁻¹ s⁻¹]
B1	0.6	0.18	0.62	0.000337	544000	–	–	–	–
B2	0.86	0.13	0.285	0.000167	588000	–	–	–	–
B3	0.73	0.13	0.24	9.63e-05	401000	–	–	–	–
B4	0.23	0.19	0.49	0.000138	282000	–	–	–	–
B5	0.35	0.22	0.96	6.99e-05	72800	0.32	1.25	0.000113	90900
B6	0.31	0.19	0.606	0.000391	645000	–	–	–	–
B7	0.32	0.2	1.22	0.000159	130000	–	–	–	–
B8	0.34	0.17	0.792	0.000125	158000	–	–	–	–
B9	0.24	0.17	0.337	0.00012	355000	–	–	–	–
B10	0.29	0.23	1.64	0.000215	131000	–	–	–	–
B11	0.28	0.25	0.626	0.000402	642000	–	–	–	–
B12	0.37	0.1	0.381	0.000115	301000	–	–	–	–
